Results from patent US20200157212A1 (Pfizer, published 2020).
Where a chain is given by its changes, count along the chain named.

Assays:
Human ROBO2 Ig1-Ig2-His = target: T1, Human ROBO2 Ig1-Ig2-His (human, UniProt Q9HCK4 31-220); assay: SPR, antibody on CM5 chip, ROBO2 Ig1-Ig2-His
T1 construct: the His tag is named only in the SPR paragraphs; the Octet and ELISA paragraphs print 'ROBO2 Ig1-Ig2' without a tag; also called ROBO2 Ig1-2; Human ROBO2 Ig 1,2
T1 sequence: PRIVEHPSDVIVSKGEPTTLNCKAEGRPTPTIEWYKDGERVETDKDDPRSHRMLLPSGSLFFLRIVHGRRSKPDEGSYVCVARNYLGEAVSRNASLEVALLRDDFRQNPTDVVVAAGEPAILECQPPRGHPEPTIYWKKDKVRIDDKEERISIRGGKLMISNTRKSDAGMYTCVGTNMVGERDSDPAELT
Description: Based upon several criteria, Abcs25 and Abcs35 were selected for further characterization. Using flow cytometry, improvement in the binding EC₅₀ to human ROBO2 relative to the parental 93H2 was evaluated. Starting at 6.7 nM, 11-point, 3-fold dilution series were made for each antibody and used to stain HEK293 overexpressing human ROBO2 as described above for the ROBO2 fold selectivity (Example 2). […] In addition to measuring improved binding to human ROBO2, it was important to ensure that high affinity binding to both cynomolgus monkey ROBO2 and rat ROBO2 was maintained. Using HEK293 cells overexpressing either cynomolgus monkey ROBO2 or rat ROBO2, the relative dose-dependent binding of 93H2, Abcs25 and Abcs35 was evaluated as described above. High affinity binding to both cynomolgus monkey and rat ROBO2 was maintained in Abcs25 and Abcs35 (Table 4). […] Briefly, Abcs35 was immobilized to 300 resonance units (RU) on a CM5 chip. Association of ROBO2 Ig1-Ig2-His (ROBO2) was measured over 5 minutes and dissociation was followed for a period of 10 minutes.
Affinity was measured by standard SPR methods as described in Example 3. Briefly, antibodies were immobilized to a specific measure of resonance units (RU) on a CM5 chip. Association of ROBO2 Ig1-Ig2-His (ROBO2) and dissociation will be followed for a period of time.

[1] = target: T2, Terbium (Tb) labeled-SNAP tagged ROBO2 expressed on HEK293 cells (Homo sapiens (Human), UniProt Q9HCK4 22-1378, terbium label on the SNAP tag); assay: HTRF competition, competitor d2-SLIT2-N, ROBO2 HEK293 cells
T2 construct: also called Tb-labeled ROBO2 cells; ROBO2 expressing cells; not shown: SNAP tag
T2 sequence: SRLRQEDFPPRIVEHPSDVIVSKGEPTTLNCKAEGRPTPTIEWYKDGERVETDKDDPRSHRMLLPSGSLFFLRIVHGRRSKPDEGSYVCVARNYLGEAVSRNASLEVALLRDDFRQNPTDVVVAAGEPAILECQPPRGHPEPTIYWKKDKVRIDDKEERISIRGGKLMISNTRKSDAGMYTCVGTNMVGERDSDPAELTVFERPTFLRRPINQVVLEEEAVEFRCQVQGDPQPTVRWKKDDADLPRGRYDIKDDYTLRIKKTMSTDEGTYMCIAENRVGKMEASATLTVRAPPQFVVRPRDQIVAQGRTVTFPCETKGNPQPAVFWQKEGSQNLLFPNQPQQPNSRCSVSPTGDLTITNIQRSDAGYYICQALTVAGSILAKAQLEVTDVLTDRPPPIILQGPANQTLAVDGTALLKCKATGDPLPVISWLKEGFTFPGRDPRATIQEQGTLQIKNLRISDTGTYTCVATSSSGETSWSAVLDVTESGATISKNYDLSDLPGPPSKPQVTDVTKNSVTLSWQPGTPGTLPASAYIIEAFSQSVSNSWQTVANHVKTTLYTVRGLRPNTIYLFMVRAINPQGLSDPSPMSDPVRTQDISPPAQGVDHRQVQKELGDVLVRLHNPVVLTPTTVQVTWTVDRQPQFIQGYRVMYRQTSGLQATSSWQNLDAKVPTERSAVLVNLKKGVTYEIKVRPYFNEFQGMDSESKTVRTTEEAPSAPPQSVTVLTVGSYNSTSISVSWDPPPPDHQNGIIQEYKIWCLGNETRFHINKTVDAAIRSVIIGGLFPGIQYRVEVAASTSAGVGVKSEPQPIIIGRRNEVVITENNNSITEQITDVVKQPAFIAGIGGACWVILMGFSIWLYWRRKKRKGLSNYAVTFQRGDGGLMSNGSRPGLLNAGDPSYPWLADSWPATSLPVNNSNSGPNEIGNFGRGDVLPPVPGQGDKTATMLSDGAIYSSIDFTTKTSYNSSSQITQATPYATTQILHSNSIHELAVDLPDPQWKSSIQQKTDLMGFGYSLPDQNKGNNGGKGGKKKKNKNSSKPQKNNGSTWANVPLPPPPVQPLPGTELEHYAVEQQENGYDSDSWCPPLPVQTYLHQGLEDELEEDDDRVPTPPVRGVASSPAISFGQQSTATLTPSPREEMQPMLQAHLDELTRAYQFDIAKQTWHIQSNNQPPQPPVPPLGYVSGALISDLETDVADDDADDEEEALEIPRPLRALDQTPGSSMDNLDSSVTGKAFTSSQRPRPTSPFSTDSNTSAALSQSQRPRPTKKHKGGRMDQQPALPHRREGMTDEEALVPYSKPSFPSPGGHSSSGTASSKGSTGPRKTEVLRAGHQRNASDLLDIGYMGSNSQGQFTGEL
Description: A ROBO2-SLIT2-N homogenous time resolved fluorescence (HTRF) assay was used to identify antibodies that were capable of blocking SLIT2-N binding to ROBO2. In this assay, terbium (Tb) labeled-SNAP tagged ROBO2 expressing HEK293 cells were incubated with 5 nM d2-labeled SLIT-2N in the presence of 1 nM anti-ROBO2 antibodies for 1 hour. After incubation, fluorescence at 665 nm and 620 nm was measured on an Envision multilabel plate reader. […] Maximal signal was defined as the HTRF ratio of Tb-labeled ROBO2 cells with d2-labeled SLIT2-N in the absence of antibody, the minimum signal was defined as the HTRF ratio of Tb-labeled ROBO2 expressing HEK293 cells only. One nanomolar (nM) parental antibody, 93H2, was unable to block the HTRF assay, therefore this concentration was selected to identify clones with a higher affinity than 93H2 (Table 2, HTRF Ratio column). […] Antibodies derived from chain (Abcs series) or CDR shuffling (CTIR-2 series) were evaluated in 11-point, 5-fold dilution series with a top concentration of 1500 nM (Table 2 HTRF IC₅₀).
Neutralization of SLIT2-N binding to ROBO2 was assessed ROBO2:SLIT2-N homogenous time resolved fluorescence (HTRF) assay as described in Example 2. Briefly the HTRF assay was performed as follows: terbium (Tb) labeled-SNAP tagged ROBO2 expressing HEK293 cells were incubated with d2-labeled SLIT-2N in the presence of anti-ROBO2 antibodies for 1 hour. After incubation, fluorescence at 665 nm and 620 nm was measured on an Envision multi-label plate reader. […] Maximal signal was defined as the HTRF ratio of Tb-labeled ROBO2 cells with d2-labeled SLIT2-N in the absence of antibody, the minimum signal was defined as the HTRF ratio of Tb-labeled ROBO2 expressing HEK293 cells only.

B1: Abcs35 (antibody, human IgG1, kappa)
heavy: EVQLVQSGAEVKKPGASVKVSCKASGYTFTGYYMHWVRQAPGQGLEWMGWINPKNGDTEFPQKFQGRVTMTRDTSITTAYMDLSRLRSDDTAVYYCARESGDDAFDIWGQGTMVTVSSASTKGPSVFPLAPSSKSTSGGTAALGCLVKDYFPEPVTVSWNSGALTSGVHTFPAVLQSSGLYSLSSVVTVPSSSLGTQTYICNVNHKPSNTKVDKKVEPKSCDKTHTCPPCPAPEAAGAPSVFLFPPKPKDTLMISRTPEVTCVVVDVSHEDPEVKFNWYVDGVEVHNAKTKPREEQYNSTYRVVSVLTVLHQDWLNGKEYKCKVSNKALPAPIEKTISKAKGQPREPQVYTLPPSREEMTKNQVSLTCLVKGFYPSDIAVEWESNGQPENNYKTTPPVLDSDGSFFLYSKLTVDKSRWQQGNVFSCSVMHEALHNHYTQKSLSLSPGK
light: DIVMTQSPSSLSASVGDRVTITCRASQSISSYLNWYQQKPGKAPKLLIYAASSLQSGVPSRFSGSGSGTDFTLTISSLQPEDFATYYCQQSVGLFFGGGTKVEIKRTVAAPSVFIFPPSDEQLKSGTASVVCLLNNFYPREAKVQWKVDNALQSGNSQESVTEQDSKDSTYSLSSTLTLSKADYEKHKVYACEVTHQGLSSPVTKSFNRGEC
notes: fully human IgG1; VH of Ab96 with VL of Ab123
B1 showed a Kd (Human ROBO2 Ig1-Ig2-His) of 0.0857 nM and an IC50 [1] of 0.0761 nM.

B2: Abcs35-J (antibody, human IgG1, kappa)
heavy: B1 heavy with D82E
light: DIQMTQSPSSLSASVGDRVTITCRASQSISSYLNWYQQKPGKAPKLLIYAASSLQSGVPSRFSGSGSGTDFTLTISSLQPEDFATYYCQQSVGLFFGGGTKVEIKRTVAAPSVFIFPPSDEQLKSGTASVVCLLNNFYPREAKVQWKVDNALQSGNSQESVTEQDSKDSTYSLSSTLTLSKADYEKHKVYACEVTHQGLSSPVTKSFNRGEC
notes: germlined variant of Abcs35; also called ABCS-J
With B2 the Kd (Human ROBO2 Ig1-Ig2-His) was 0.0939 nM and the IC50 [1] was 0.0744 nM.
